Measured values published in patent publication US20220168438A1 (Daiichi Sankyo, published 2022).
One block for each binder: values may come before it.

What was measured:
human CLDN9 = biological target: T1, human CLDN9 (human, UniProt O95484 1-217); experiment: flow cytometry on transiently transfected 293T cells, 0.8-100 nM
T1 construct: Expressed on 293T cells from human CLDN9/pCMV6-Entry (OriGene); Transfection was confirmed with an anti-FLAG antibody
T1 sequence: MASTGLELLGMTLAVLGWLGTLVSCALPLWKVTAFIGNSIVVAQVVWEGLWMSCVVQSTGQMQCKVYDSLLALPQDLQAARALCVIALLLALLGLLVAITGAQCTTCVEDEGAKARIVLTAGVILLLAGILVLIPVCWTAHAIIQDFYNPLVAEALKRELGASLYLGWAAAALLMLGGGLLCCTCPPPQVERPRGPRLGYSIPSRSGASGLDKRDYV
Protocol: (§1) The binding activity of the humanized anti-CLDN6 antibody produced in Example 10 to human CLDN6 and its family molecules, CLDN3, CLDN4, and CLDN9, was evaluated by using a flow cytometry method. Used were 293T cells transiently transfected in the same manner as in Example 7-1. To cells into which a human CLDN6 or human CLDN9 gene had been transferred, the humanized anti-CLDN6 antibody H1L1, H2L2, H1L3, H2L4, or H3L3, or a human IgG1 control antibody (Calbiochem) was added and suspended to a final concentration of 100 nM, 20 nM, 4 nM, or 0.8 nM, and the resultant was left to stand at 4° C. for 30 minutes. To cells into which a human CLDN3 or human CLDN4 gene, or an empty vector had been transferred, the humanized anti-CLDN6 antibody H1L1, H2L2, H1L3, H2L4, or H3L3 was added and suspended to a final concentration of 100 nM, and the resultant was left to stand at 4° C. for 30 minutes. The cells were washed with Dulbecco's phosphate buffered saline (Sigma-Aldrich Co. LLC) containing 5% fetal bovine serum (Hyclone) (hereinafter, referred to as 5% FBS-containing PBS), and FITC AffiniPureF (ab′)2 Fragment Goat Anti-Human IgG (H+L) (Jackson ImmunoResearch Laboratories Inc.) 150-fold diluted with 5% FBS-containing PBS was then added thereto, and the cells were suspended and left to stand at 4° C. for 30 minutes. After washing with 5% FBS-containing PBS, detection was carried out by using a flow cytometer (FC500; Beckman Coulter, Inc.). Data analysis was carried out by using FlowJo (Tree Star, Inc.), and mean fluorescence intensity (MFI) of FITC, which indicates the amount of the binding antibody, was calculated. […] In each graph in FIG. 13, the abscissa represents antibody concentrations and the ordinate represents MFI.

human CLDN6 = biological target: T2, human CLDN6 (human, UniProt P56747 1-220); experiment: as above
T2 construct: Four-transmembrane protein; It was expressed on 293T cells from human CLDN6/pCMV-Entry (OriGene) and on CHO-K1 cells by cDNA transfection; it was endogenous in the NTERA-2 lysate used for immunoprecipitation; also called claudin-6; human claudin-6
T2 sequence: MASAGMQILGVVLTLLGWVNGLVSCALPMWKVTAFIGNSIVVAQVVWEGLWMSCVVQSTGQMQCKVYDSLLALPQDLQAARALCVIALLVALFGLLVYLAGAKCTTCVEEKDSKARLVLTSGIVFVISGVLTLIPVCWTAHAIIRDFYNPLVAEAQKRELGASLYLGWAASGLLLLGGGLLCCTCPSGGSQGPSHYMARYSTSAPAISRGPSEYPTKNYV
Protocol: as §1

human CLDN3 = biological target: T3, human CLDN3 (human, UniProt O15551 1-220); experiment: flow cytometry on transiently transfected 293T cells
T3 construct: whole, on cells
T3 sequence (looked up): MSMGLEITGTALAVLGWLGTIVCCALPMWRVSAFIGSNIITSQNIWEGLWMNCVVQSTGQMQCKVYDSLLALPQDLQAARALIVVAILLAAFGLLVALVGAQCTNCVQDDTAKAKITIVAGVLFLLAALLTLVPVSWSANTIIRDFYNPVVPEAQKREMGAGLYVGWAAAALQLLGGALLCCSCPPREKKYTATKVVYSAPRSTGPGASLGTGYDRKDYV
Protocol: (§2) Binding activity of the mouse anti-CLDN6 antibodies produced in Example 6 to human CLDN6 and its family molecules, CLDN3, CLDN4, and CLDN9, was evaluated by using a flow cytometry method. Human CLDN3/pCMV6-Entry, human CLDN4/pCMV6-Entry, human CLDN6/pCMV-Entry, human CLDN9/pCMV6-Entry, or pCMV6-Entry purchased from OriGene Technologies, Inc. was transiently transferred into 293T cells (Thermo Fisher Scientific, HCL4517) by using Lipofectamine 2000 (Thermo Fisher Scientific), and the cells were cultured under conditions of 37° C. and 5% CO₂ overnight, and then a cell suspension was prepared. The transfected 293T cell suspension was centrifuged to remove the supernatant, and a mouse anti-CLDN6 antibody (clone number: B1 or C7) or a mouse IgG1 control antibody (R&D Systems, Inc.) was then added and suspended to a final concentration of 30 μg/mL, 10 μg/mL, 3.3 μg/mL, or 1.1 μg/mL, and the resultant was left to stand at 4° C. for 1 hour. The cells were washed twice with Dulbecco's phosphate buffered saline (Sigma-Aldrich Co. LLC) containing 5% fetal bovine serum (Hyclone) (hereinafter, referred to as 5% FBS-containing PBS), and FLUORESCEIN-CONJUGATED GOAT IGG FRACTION TO MOUSE IGG (WHOLE MOLECULE) (MP Biomedicals, Inc.) 500-fold diluted with 5% FBS-containing PBS was then added thereto, and the cells were suspended and left to stand at 4° C. for 1 hour. After washing twice with 5% FBS-containing PBS, detection was carried out by using a flow cytometer (FC500; Beckman Coulter, Inc.). Data analysis was carried out by using FlowJo (Tree Star, Inc.). To confirm each transfection, the cells were permeabilized with 0.25% Tween 20-containing PBS, and then a mouse anti-FLAG antibody (Sigma-Aldrich Co. LLC) was used. […] In each graph in FIG. 11, the ordinate represents FITC fluorescence intensity indicating the amount of the binding antibody and the abscissa represents antibody concentrations.
(§3) The binding activity of the humanized anti-CLDN6 antibody produced in Example 10 to human CLDN6 and its family molecules, CLDN3, CLDN4, and CLDN9, was evaluated by using a flow cytometry method.

human CLDN4 = biological target: T4, human CLDN4 (human, UniProt O14493 1-209); experiment: as above
T4 construct: whole, on cells
T4 sequence (looked up): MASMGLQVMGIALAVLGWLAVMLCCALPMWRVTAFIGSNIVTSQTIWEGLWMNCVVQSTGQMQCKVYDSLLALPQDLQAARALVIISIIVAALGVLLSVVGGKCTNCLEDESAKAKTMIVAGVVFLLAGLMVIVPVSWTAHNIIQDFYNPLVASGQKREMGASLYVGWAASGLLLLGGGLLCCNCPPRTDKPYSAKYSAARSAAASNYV
Protocol: as §2, §3

B1: humanized anti-CLDN6 antibody H1L1 (antibody, human IgG1, kappa, L234A L235A, V domains shown)
VH: QVQLVQSGAEVKKPGASVKVSCKASGYTFTEYTMHWVRQAPGQGLEWMGGVNPNSGDTSYAQKFQGRVTITADTSTSTAYMELSSLRSEDTAVYYCARPGGYDVGYYAMDYWGQGTLVTVSS
VL: DIQMTQSPSSLSASVGDRVTITCRASQDINNYLNWYQQKPGKAPKLLIYFTSRLHSGVPSRFSGSGSGTDYTLTISSLQPEDFATYYCQQGYPLPWTFGQGTKVEIKR
notes: Human IgG1 LALA heavy chain and human kappa light chain; also called H1L1 antibody; hH1 + hL1
binding result (human CLDN9): binds
binding result (human CLDN6): binds
binding result (human CLDN3): no binding (tested: 100 nM)
binding result (human CLDN4): no binding (tested: 100 nM)

B2: humanized anti-CLDN6 antibody H2L2 (antibody, human IgG1, kappa, L234A L235A, V domains shown)
VH: EVQLVQSGAEVKKPGASVKVSCKTSGYTFTEYTMHWVRQAPGKSLEWMGGVNPNSGDTSYAQKFQGRVTITADTSTSTAYMELSSLRSEDTAVYYCARPGGYDVGYYAMDYWGQGTLVTVSS
VL: DIQMTQSPSSLSASVGDRVTITCRASQDINNYLNWYQQKPGKAVKLLIYFTSRLHSGVPSRFSGSGSGTHYTLTISSLQPEDFATYYCQQGYPLPWTFGQGTKVEIKR
notes: Human IgG1 LALA heavy chain and human kappa light chain; also called H2L2 antibody; hH2 + hL2
binding result (human CLDN9): binds
binding result (human CLDN6): binds
binding result (human CLDN3): no binding (tested: 100 nM)
binding result (human CLDN4): no binding (tested: 100 nM)

The remaining lines, values ahead:

binding result (human CLDN9): binds
binding result (human CLDN6): binds
binding result (human CLDN3): no binding (tested: 100 nM)
binding result (human CLDN4): no binding (tested: 100 nM)
B3: humanized anti-CLDN6 antibody H2L4 (antibody, human IgG1, kappa, L234A L235A, V domains shown)
VH: EVQLVQSGAEVKKPGASVKVSCKTSGYTFTEYTMHWVRQAPGKSLEWMGGVNPNSGDTSYAQKFQGRVTITADTSTSTAYMELSSLRSEDTAVYYCARPGGYDVGYYAMDYWGQGTLVTVSS
VL: DIQMTQSPSSLSASVGDRVTITCRASQDINNYLNWYQQKPGGAVKLLIYFTSRLHSGVPSRFSGSGSGTDYTLTISSLQPEDFATYYCQQGNTLPWTFGGGTKVEIKR
notes: Human IgG1 LALA heavy chain and human kappa light chain; also called H2L4 antibody; hH2 + hL4

binding result (human CLDN9): binds
binding result (human CLDN6): binds
binding result (human CLDN3): no binding (tested: 100 nM)
binding result (human CLDN4): no binding (tested: 100 nM)
B4: humanized anti-CLDN6 antibody H3L3 (antibody, human IgG1, kappa, L234A L235A, V domains shown)
VH: EVQLVQSGAEVKKPGASVKVSCKTSGYTFTEYTMHWVRQAPGQGLEWMGGVNPNSGDTSYAQKFQGRVTLTVDKSTSTAYMELSSLRSEDTAVYYCARPGGYDVGYYAMDYWGQGTLVTVSS
VL: DIQMTQSPSSLSASVGDRVTITCRASQDINNYLNWYQQKPGGAVKLLIYFTSRLHSGVPSRFSGSGSGTDYTLTISSLQPEDFATYYCQQGYPLPWTFGGGTKVEIKR
notes: Human IgG1 LALA heavy chain and human kappa light chain; also called H3L3 antibody; hH3 + hL3
